Results published in US20230279451A1, “METHODS FOR THE BIOCATALYTICAL MANUFACTURING OF DIHYDROCHALCONES” (SYMRISE AG, priority 2019, published 2023).
Changes are numbered by the printed parent chain. Numbers in names are those of the source. Entries after “also recorded” stand apart in the source; their conditions may differ.

B1: S173H: variant of the O-methyltransferase from Myxococcus xanthus (MxSafC_S173H) (protein)
chain: MIHHVELTQSVLQYIRDSSVRDNDILRDLREETSKLPLRTMQIPPEQGQLLSLLVRLIGARKTLEVGVFTGYSTLCAALALPADGRVIACDLSEEWVSIARRYWQRAGVADRIEVRLGDAHHSLEALVGSEHRGTFDLAFIDADKESYDFYYEHALRLVRPGGLIILDNTLWHGKVADPSVVGDPETDSLRRINAKLLTDERVDLSMLPIADGLTLARKR
modifications: MxSafC_S173H
B2: T40P: variant of the O-methyltransferase from Myxococcus xanthus (MxSafC_T40P) (protein)
chain: B1 chain with T40P, H173S
modifications: MxSafC_T40P
B3: T40P/S173H: double mutant variant of the O-methyltransferase from Myxococcus xanthus (MxSafC_T40P_S173H) (protein)
chain: B1 chain with T40P
modifications: MxSafC_T40P_S173H
B4: L92Q: variant of the O-methyltransferase from Myxococcus xanthus (MxSafC_L92Q) (protein)
chain: B1 chain with L92Q, H173S
modifications: MxSafC_L92Q
B5: M5: quintuple mutant of MxSafC combining mutation T40P/L92Q/W96A/D119P/S173H (protein)
chain: B1 chain with T40P, L92Q, W96A, D119P
modifications: MxSafC_M5
notes: quintuple mutant of MxSafC combining mutation T40P/L92Q/W96A/D119P/S173H
B6: W96A: variant of the O-methyltransferase from Myxococcus xanthus (MxSafC_W96A) (protein)
chain: B1 chain with W96A, H173S
modifications: MxSafC_W96A
B7: D119P: variant of the O-methyltransferase from Myxococcus xanthus (MxSafC_D119P) (protein)
chain: B1 chain with D119P, H173S
modifications: MxSafC_D119P

assay: Biotransformation of 3-hydroxyphloretin with lysed E. coli BL21(DE3) cells expressing MxSafC wild-type or variants (LC-MS); format: biochemical; conditions: 3 mM 3-hydroxyphloretin, 3 mM S-adenosylmethionine, 25° C., 24 hours; FIG. 10 light grey bars
Text: FIG. 10: Biotransformation of 3-Hydroxyphloretin with lysed E. coli BL21 (DE 3) cells, which express MxSafC (wild-type (wt), cf. SEQ ID NOs: 13, 14, 55), or specific variants or mutants thereof (cf. SEQ ID NOs: 56 to 76). Hesperetin dihydrochalcone as well as homoeriodictyol (HED) dihydrochalcone are the products. Conversion of 3-hyroxyphloretin (30HP) shown in light grey, product specificity towards hesperetin dihydrochalcone is shown in dark grey.
MxSafC mutant variants correspond to SEQ ID NOs: 56 to SEQ ID NO: 76. These were synthesized (BioCat GmbH, Heidelberg, Germany) and cloned into pET28a between NcoI and HindIII restriction sites, respectively. SEQ ID NOs: 13, 14 and 55 show the respective wild-type sequence. By artificial design, certain mutants were created to optimize the activity and/or specificity of the MxSafC enzyme. Interesting single, double and quintuple mutants could be identified, as shown in detail in the results in FIG. 10.
First, various positions within MxSafC (SEQ ID NO: 14) were randomly mutated. All mutants were characterized and checked for activity. In a second round, targeted mutations and combinations thereof were tested in an iterative manner to identify suitable mutants for commercial purposes that have a good activity and conversion rate, but at the same time a good or even improved product specificity. Indeed, certain variants could be identified that fulfill these needs.
30 E. coli BL21(DE3) cells, each containing a plasmid from Table 1, were used to inoculate 5 ml of LB medium (Carl Roth GmbH, Karlsruhe, Germany) with the corresponding antibiotic. After incubation for 16 h (37° C., 200 rpm), 20 ml TB medium (Carl Roth GmbH, Karlsruhe, Germany) were inoculated with an OD600 of 0.1 from these cultures. These main cultures were incubated (37° C., 200 rpm) until an OD600 of 0.5-0.8 was achieved. After addition of 1 mM isopropyl-β-D-thiogalactopyranoside, the cultures were incubated for a further 16 h (22° C., 200 rpm). The main culture was centrifuged (10 min, 10,000 rpm), the pelleted cells were decomposed using the B-PER protein extraction reagent (Thermo Fisher Scientific, Bonn, Germany) according to the manufacturers specifications. After additional centrifugation (10 min, 14,000 rpm) the supernatant was mixed with 3 mM 3-hydroxyphloretin, 3 mM S-adenosylmethionine, 0.1 mM MgCl2. The reaction mixture was incubated at 25° C. for 24 hours. After stopping the assay with 20% trichloroacetic acid ([…] final concentration) the sample was centrifuged and the supernatant used for LC-MS analysis.

Row | Molecule | enzyme activity (conversion of 3-hydroxyphloretin)
1 | B1 | particularly favorable
2 | B2 | particularly favorable
3 | B3 | a technically reasonable activity

same assay, conditions: 3 mM 3-hydroxyphloretin, 3 mM S-adenosylmethionine, 25° C., 24 hours; compared with wild-type MxSafC; FIG. 10 dark grey

Row | Molecule | product specificity towards hesperetin dihydrochalcone
4 | B4 | nearly balanced
5 | B1 | performed better than the wild-type
6 | B5 | performed better than the wild-type
7 | B2 | performed better than the wild-type
8 | B6 | performed better than the wild-type
9 | B7 | nearly balanced
10 | B3 | performed better than the wild-type; also recorded: a good specificity
